Paper PMC10556095, “A natural mutation in the promoter of Ms-cd1 causes dominant male sterility in Brassica oleracea”

B1: WTpro (dsDNA)
DNA 1: GATACATGTAAGTGCAGGTAGCTCATGACAGAAATTGACGGAACACAGAGTTACTCTGATTCTATA
DNA 2: TATAGAATCAGAGTAACTCTGTGTTCCGTCAATTTCTGTCATGAGCTACCTGCACTTACATGTATC
B2: MTpro (dsDNA)
DNA 1: GATACATGTAAGTGCAGGTAGCTCATGCAGAAATTGACGGAACACAGAGTTACTCTGATTCTATA
DNA 2: TATAGAATCAGAGTAACTCTGTGTTCCGTCAATTTCTGCATGAGCTACCTGCACTTACATGTATC
B3: W1 (dsDNA)
DNA 1: GTGCAGGTAGCTCATG
DNA 2: CATGAGCTACCTGCAC
B4: W7 (dsDNA)
DNA 1: CAGAAATTGACGGAAC
DNA 2: GTTCCGTCAATTTCTG

Assays:
[1] = molecular target: T1, BoERF1L-His (His-BoERF1L; Methods: His-BoERF1) (Brassica oleracea, UniProt A0A0D3ABA8 1-210); test: EMSA; unlabeled WTpro at 20x, 30x, 40x competes dose-dependently; EMSA: 10 µL with 2 µg protein, 20 fmol biotin-labeled DNA, 2 µL 5x EMSA/Gel-Shift Binding Buffer (GS005, Beyotime); 6% polyacrylamide gel; salt, pH and temperature not stated; settings: protein: recombinant; tags: His (Methods: C-terminal; pET-SUMO vector); label: biotin
[2] = molecular target: T1, BoERF1L-His (His-BoERF1L; Methods: …); test: EMSA; EMSA: 10 µL with 2 µg protein, 20 fmol biotin-labeled DNA, 2 µL 5x EMSA/Gel-Shift Binding Buffer (GS005, Beyotime); 6% polyacrylamide gel; salt, pH and temperature not stated; settings: protein: recombinant, tags: His (Methods: C-terminal; pET-SUMO vector)

T1 sequence (A0A0D3ABA8 entry or part of it): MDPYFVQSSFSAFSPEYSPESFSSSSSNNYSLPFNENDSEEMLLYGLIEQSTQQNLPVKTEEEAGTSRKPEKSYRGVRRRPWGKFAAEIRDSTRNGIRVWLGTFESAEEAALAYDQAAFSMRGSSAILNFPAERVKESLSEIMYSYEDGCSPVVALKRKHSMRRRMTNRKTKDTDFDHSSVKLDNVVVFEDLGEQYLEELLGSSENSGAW

| Binder | binding result [2] | also measured |
| --- | --- | --- |
| B1 |  | binding result [1]: binds |
| B2 |  | binding result ([2]; label: biotin): no binding |
| B3 | no binding |  |
| B4 | no binding |  |
